Values of other authors in PMC6051640.

Biological target: retinol binding protein (Homo sapiens) (UniProt P02753)

Which Kd does the source give for Stra6 (from UniProt Q9BX79) here?
Its Kd is 0.059 µM.
